Patent US20200024330A1

Assays:
Experiment in all cases: cell-based or functional assay
[1] = target: HIV-1 Env of isolate MGRM-D-004 (clade D) (HIV-1)
[2] = target: HIV-1 94UG114 envelope glycoprotein (Env) on pseudovirus (HIV-1)
[3] = target: HIV-1 MGRM-A-011 envelope glycoprotein (Env) (HIV-1)
[4] = target: HIV-1 97ZA012 envelope glycoprotein (Env) on pseudovirus (HIV-1)
[5] = target: HIV-1 Env of isolate MGRM-AE-001 (HIV-1)
[6] = target: HIV-1 MGRM-C-020 Env (HIV-1)
[7] = target: HIV-1 Env of isolate 92UG005 (clade D) (HIV-1)
[8] = target: HIV-1 VLGCA1 envelope glycoprotein (Env) on pseudovirus (HIV-1)
[9] = target: HIV-1 Env of pseudovirus QH0692.42 (Acute), clade B (HIV-1)
[10] = target: HIV-1 MGRM-A-006 envelope glycoprotein (Env) (HIV-1)
[11] = target: HIV-1 Env of isolate 92UG024 (clade D) (HIV-1)
[12] = target: HIV-1 94KE105 envelope glycoprotein (Env) (HIV-1)
[13] = target: HIV-1 Env of isolate MGRM-D-012 (clade D) (HIV-1)
[14] = target: HIV-1 98CN006 envelope glycoprotein (Env) on pseudovirus (HIV-1)
[15] = target: HIV-1 MGRM-F1-022 Env (pseudovirus) (HIV-1)
[16] = target: HIV-1 Env of isolate MGRM-G-016 (clade G pseudovirus) (HIV-1)
[17] = target: HIV-1 Env of isolate 92UG031 (HIV-1)
[18] = target: HIV-1 Env of isolate MGRM-C-008 (HIV-1)
[19] = target: HIV-1 Env of isolate MGRM-D-013 (HIV-1)
[20] = target: HIV-1 Env of isolate MGRM-D-001 (HIV-1)
[21] = target: HIV-1 Env of isolate MGRM-C-019 (HIV-1)
[22] = target: HIV-1 Env of isolate MGRM-C-020 (HIV-1)
[23] = target: HIV-1 Env of isolate 93IN905 (HIV-1)
[24] = target: HIV-1 JR-CSF Env L125A (HIV-1 (isolate JR-CSF)) (UniProt P20871)
[25] = target: HIV-1 Env of isolate VLGCA1 (clade A), on pseudovirus (HIV-1)
[26] = target: HIV-1 Env of isolate MGRM-C-013 (HIV-1)
[27] = target: HIV-1 Env of isolate 97ZA012 (HIV-1)
[28] = target: HIV-1 Env of isolate MGRM-F1-013 (subtype F), on pseudovirus (HIV-1)
[29] = target: HIV-1 JR-CSF Env T162A (HIV-1 (isolate JR-CSF)) (UniProt P20871)
[30] = target: HIV-1 Env of isolate MGRM-A-014 (clade A), on pseudovirus (HIV-1)
[31] = target: HIV-1 Env of isolate MGRM-C-024 (HIV-1)
[32] = target: HIV-1 Env of isolate MGRM-C-022 (HIV-1)
[33] = target: HIV-1 MGRM-D-018 envelope glycoprotein (Env) on pseudovirus (HIV-1)

Chain of 1443_C16 (PG16) (TCN-116) (antibody) (VH): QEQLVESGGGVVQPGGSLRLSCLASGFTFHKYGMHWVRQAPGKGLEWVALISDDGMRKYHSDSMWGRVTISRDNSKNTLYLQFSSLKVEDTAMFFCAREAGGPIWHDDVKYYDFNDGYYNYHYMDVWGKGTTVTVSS
Chain of 1443_C16 (PG16) (TCN-116) (antibody) (VL): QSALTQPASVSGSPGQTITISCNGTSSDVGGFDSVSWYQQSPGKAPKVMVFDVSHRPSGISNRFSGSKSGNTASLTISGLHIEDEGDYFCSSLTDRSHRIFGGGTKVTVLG

2F5 (antibody)
IC50 (µg/ml), pseudovirus neutralization [1]: 2.3 µg/mL | IC50 (µg/ml), pseudovirus neutralization [2]: > 50 µg/mL | IC50 (µg/ml), pseudovirus neutralization [3]: > 50 µg/mL | IC50 (µg/ml), pseudovirus neutralization [4]: > 50 µg/mL | IC50 (µg/ml), pseudovirus neutralization [5]: 0.29 µg/mL | IC50 [6]: > 50 µg/mL | IC50 (µg/ml), pseudovirus neutralization [7]: 8.61 µg/mL | IC50 (µg/ml), pseudovirus neutralization [8]: 3.9 µg/mL | IC50 (µg/ml), pseudovirus neutralization [9]: 5.42 µg/mL | IC50 (µg/ml), pseudovirus neutralization [10]: 15.7 µg/mL | IC50 (µg/ml), pseudovirus neutralization [11]: 0.95 µg/mL | IC50 (µg/ml), pseudovirus neutralization [12]: > 50 µg/mL | IC50 (µg/ml), pseudovirus neutralization [13]: 1.7 µg/mL | IC50 (µg/ml), pseudovirus neutralization [14]: > 50 µg/mL | IC50 (µg/ml), pseudovirus neutralization [15]: 1.26 µg/mL | IC50 (µg/ml), pseudovirus neutralization [16]: 16.8 µg/mL

2G12 (antibody)
IC50 (µg/ml), pseudovirus neutralization [1]: > 50 µg/mL | IC50 (µg/ml), pseudovirus neutralization [2]: 13.9 µg/mL | IC50 (µg/ml), pseudovirus neutralization [3]: > 50 µg/mL | IC50 (µg/ml), pseudovirus neutralization [4]: > 50 µg/mL | IC50 (µg/ml), pseudovirus neutralization [5]: > 50 µg/mL | IC50 [6]: 18.6 µg/mL | IC50 (µg/ml), pseudovirus neutralization [7]: > 50 µg/mL | IC50 (µg/ml), pseudovirus neutralization [8]: > 50 µg/mL | IC50 (µg/ml), pseudovirus neutralization [9]: 4.39 µg/mL | IC50 (µg/ml), pseudovirus neutralization [10]: 13.8 µg/mL | IC50 (µg/ml), pseudovirus neutralization [11]: 0.42 µg/mL | IC50 (µg/ml), pseudovirus neutralization [12]: 7.22 µg/mL | IC50 (µg/ml), pseudovirus neutralization [13]: > 50 µg/mL | IC50 (µg/ml), pseudovirus neutralization [14]: > 50 µg/mL | IC50 (µg/ml), pseudovirus neutralization [15]: > 50 µg/mL | IC50 (µg/ml), pseudovirus neutralization [16]: > 50 µg/mL

4E10 (antibody)
IC50 (µg/ml), pseudovirus neutralization [1]: 1.58 µg/mL | IC50 (µg/ml), pseudovirus neutralization [2]: 9.72 µg/mL | IC50 (µg/ml), pseudovirus neutralization [3]: 2.88 µg/mL | IC50 (µg/ml), pseudovirus neutralization [4]: 4.7 µg/mL | IC50 (µg/ml), pseudovirus neutralization [5]: 0.85 µg/mL | IC50 [6]: 2.8 µg/mL | IC50 (µg/ml), pseudovirus neutralization [7]: 7.46 µg/mL | IC50 (µg/ml), pseudovirus neutralization [8]: 4.58 µg/mL | IC50 (µg/ml), pseudovirus neutralization [9]: 12.7 µg/mL | IC50 (µg/ml), pseudovirus neutralization [10]: 9.87 µg/mL | IC50 (µg/ml), pseudovirus neutralization [11]: 2.17 µg/mL | IC50 (µg/ml), pseudovirus neutralization [12]: 7.63 µg/mL | IC50 (µg/ml), pseudovirus neutralization [13]: 1.13 µg/mL | IC50 (µg/ml), pseudovirus neutralization [14]: 1.91 µg/mL | IC50 (µg/ml), pseudovirus neutralization [15]: 1.01 µg/mL | IC50 (µg/ml), pseudovirus neutralization [16]: 1.02 µg/mL

1443_C16 (PG16) (TCN-116) (antibody)
IC50 (µg/ml), pseudovirus neutralization [1]: 0.01 µg/mL | IC50 (µg/ml), pseudovirus neutralization [2]: > 50 µg/mL | IC50 (µg/ml), pseudovirus neutralization [3]: 0.24 µg/mL | IC50 (µg/ml), pseudovirus neutralization [4]: 2.55 µg/mL | IC50 (µg/ml), pseudovirus neutralization [5]: 4.33 µg/mL | IC50 [6]: > 50 µg/mL | IC50 (µg/ml), pseudovirus neutralization [7]: > 50 µg/mL | IC50 (µg/ml), pseudovirus neutralization [8]: 0.18 µg/mL | IC50 (µg/ml), pseudovirus neutralization [9]: > 50 µg/mL | IC50 (µg/ml), pseudovirus neutralization [10]: > 50 µg/mL | IC50 (µg/ml), pseudovirus neutralization [11]: 24 µg/mL | IC50 (µg/ml), pseudovirus neutralization [12]: 6.13 µg/mL | IC50 (µg/ml), pseudovirus neutralization [13]: 0.35 µg/mL | IC50 (µg/ml), pseudovirus neutralization [14]: > 50 µg/mL | IC50 (µg/ml), pseudovirus neutralization [15]: 0.08 µg/mL | IC50 (µg/ml), pseudovirus neutralization [16]: 11.3 µg/mL

1495_C14 (PGC14) (antibody)
IC50 (µg/ml), pseudovirus neutralization [1]: > 50 µg/mL | IC50 (µg/ml), pseudovirus neutralization [2]: > 50 µg/mL | IC50 (µg/ml), pseudovirus neutralization [3]: > 50 µg/mL | IC50 (µg/ml), pseudovirus neutralization [4]: > 50 µg/mL | IC50 (µg/ml), pseudovirus neutralization [5]: > 50 µg/mL | IC50 [6]: > 50 µg/mL | IC50 (µg/ml), pseudovirus neutralization [7]: > 50 µg/mL | IC50 (µg/ml), pseudovirus neutralization [8]: > 50 µg/mL | IC50 (µg/ml), pseudovirus neutralization [9]: > 50 µg/mL | IC50 (µg/ml), pseudovirus neutralization [10]: > 50 µg/mL | IC50 (µg/ml), pseudovirus neutralization [11]: > 50 µg/mL | IC50 (µg/ml), pseudovirus neutralization [12]: > 50 µg/mL | IC50 (µg/ml), pseudovirus neutralization [13]: > 50 µg/mL | IC50 (µg/ml), pseudovirus neutralization [14]: > 50 µg/mL | IC50 (µg/ml), pseudovirus neutralization [15]: > 50 µg/mL | IC50 (µg/ml), pseudovirus neutralization [16]: > 50 µg/mL

5136_H01 (PGT-131) (antibody)
neutralization IC50 [17]: > 50 µg/mL | IC50 [18]: > 50 µg/mL | IC50 [19]: 4.14 µg/mL | IC50 [20]: > 50 µg/mL | IC50 [21]: 0.021 µg/mL | IC50 [22]: > 50 µg/mL | IC50 [23]: 0.177 µg/mL | Fold IC50 increase relative to wild-type [24]: 2.5 fold | IC50, single-round pseudovirus neutralization [25]: > 50 µg/mL | IC50 [26]: > 50 µg/mL | IC50 [27]: 1.81 µg/mL | IC50, pseudovirus neutralization [28]: > 50 µg/mL | Fold IC50 increase relative to wild-type [29]: 0.6 fold | IC50, single-round pseudovirus neutralization [30]: 15.4 µg/mL | IC50 [31]: > 50 µg/mL | IC50 [32]: 0.78 µg/mL

5147_N06 (PGT-130) (antibody)
neutralization IC50 [17]: > 50 µg/mL | IC50 [18]: 7.28 µg/mL | IC50 [19]: 0.429 µg/mL | IC50 [20]: > 50 µg/mL | IC50 [21]: 0.01 µg/mL | neutralization IC50 [7]: 0.474 µg/mL | neutralization IC80 [7]: > 10 µg/mL | neutralization IC90 [7]: > 10 µg/mL | neutralization IC95 [7]: > 10 µg/mL | IC50 [22]: > 50 µg/mL | IC50 [23]: 0.02 µg/mL | Fold IC50 increase relative to wild-type [24]: 2.5 fold | IC50, single-round pseudovirus neutralization [25]: > 50 µg/mL | IC50 [26]: > 50 µg/mL | neutralization IC50 [11]: > 10 µg/mL | neutralization IC80 [11]: > 10 µg/mL | neutralization IC90 [11]: > 10 µg/mL | neutralization IC95 [11]: > 10 µg/mL | IC50 [27]: 1.32 µg/mL | IC50 (ug/ml), neutralizing activity [33]: 0.0378 µg/mL | IC50, pseudovirus neutralization [28]: > 50 µg/mL | Fold IC50 increase relative to wild-type [29]: 0.6 fold | IC50, single-round pseudovirus neutralization [30]: 0.161 µg/mL | IC50 [31]: > 50 µg/mL | IC50 [32]: 0.127 µg/mL

5343_B08 (PGT-135) (antibody)
neutralization IC50 [17]: > 50 µg/mL | IC50 [18]: > 50 µg/mL | IC50 [19]: > 50 µg/mL | IC50 [20]: > 50 µg/mL | IC50 [21]: 0.264 µg/mL | IC50 [22]: > 50 µg/mL | IC50 [23]: 0.011 µg/mL | Fold IC50 increase relative to wild-type [24]: 0.9 fold | IC50, single-round pseudovirus neutralization [25]: > 50 µg/mL | IC50 [26]: > 50 µg/mL | IC50 [27]: > 50 µg/mL | IC50, pseudovirus neutralization [28]: 21.1 µg/mL | Fold IC50 increase relative to wild-type [29]: 0.9 fold | IC50, single-round pseudovirus neutralization [30]: 0.636 µg/mL | IC50 [31]: > 50 µg/mL | IC50 [32]: > 50 µg/mL

b12 (antibody)
IC50 (µg/ml), pseudovirus neutralization [1]: > 50 µg/mL | IC50 (µg/ml), pseudovirus neutralization [2]: > 50 µg/mL | IC50 (µg/ml), pseudovirus neutralization [3]: 4.01 µg/mL | IC50 (µg/ml), pseudovirus neutralization [4]: > 50 µg/mL | IC50 (µg/ml), pseudovirus neutralization [5]: 25.9 µg/mL | IC50 [6]: > 50 µg/mL | IC50 (µg/ml), pseudovirus neutralization [7]: > 50 µg/mL | IC50 (µg/ml), pseudovirus neutralization [8]: > 50 µg/mL | IC50 (µg/ml), pseudovirus neutralization [9]: 0.73 µg/mL | IC50 (µg/ml), pseudovirus neutralization [10]: 13.6 µg/mL | IC50 (µg/ml), pseudovirus neutralization [11]: 45.6 µg/mL | IC50 (µg/ml), pseudovirus neutralization [12]: > 50 µg/mL | IC50 (µg/ml), pseudovirus neutralization [13]: 0.13 µg/mL | IC50 (µg/ml), pseudovirus neutralization [14]: > 50 µg/mL | IC50 (µg/ml), pseudovirus neutralization [15]: > 50 µg/mL | IC50 (µg/ml), pseudovirus neutralization [16]: > 50 µg/mL
